Common to all, as to type: biochemical
What all share (details): pH 7.0; 22.0 °C

Substrate in data set [1]: NCC[Se][Se]CCN
Substrate in data set [2]: O=C(O)c1cc(SSc2ccc([N+](=O)[O-])c(C(=O)O)c2)ccc1[N+](=O)[O-]
Substrate in data set [3]: NCC[Se][Se]CCN
This is another data set of the same source.

Substrate in data set [4]: O=C(O)c1cc(SSc2ccc([N+](=O)[O-])c(C(=O)O)c2)ccc1[N+](=O)[O-]
The source holds these as a separate data set.

Like-named read-outs stand apart in the source and are kept apart here.

Two proteins from article PMC7509987 can be followed below.

B1: mTrxR-CUG (Mus musculus) (protein)
chain: GGQQSFDLLVIGGGSGGLACAKEAAQLGKKVAVADYVEPSPRGTKWGLGGTCVNVGCIPKKLMHQAALLGGMIRDAHHYGWEVAQPVQHNWKTMAEAVQNHVKSLNWGHRVQLQDRKVKYFNIKASFVDEHTVRGVDKGGKATLLSAEHIVIATGGRPRYPTQVKGALEYGITSDDIFWLKESPGKTLVVGASYVALECAGFLTGIGLDTTVMMRSIPLRGFDQQMSSLVTEHMESHGTQFLKGCVPSHIKKLPTNQLQVTWEDHASGKEDTGTFDTVLWAIGRVPETRTLNLEKAGISTNPKNQKIIVDAQEATSVPHIYAIGDVAEGRPELTPTAIKAGKLLAQRLFGKSSTLMDYSNVPTTVFTPLEYGCVGLSEEEAVALHGQEHVEVYHAYYKPLEFTVADRDASQCYIKMVCMREPPQLVLGLHFLGPNAGEVTQGFALGIKCGASYAQVMQTVGIHPTCSEEVVKLHISKRSGLEPTVTGCUG
In the case of B1, in data set [1], the Km was found to be 79 ± 0.7 µM, the kcat was 62.3 ± 7.5 s⁻¹ and the kcat/Km stood at 783000 M⁻¹ s⁻¹. Besides, in data set [2], the Km was 3 ± 0.7 µM, the kcat was 52.8 ± 7.5 s⁻¹ and the kcat/Km is 1.83e+07 M⁻¹ s⁻¹.

B2: mTrxRΔ3 (Mus musculus) (protein)
chain: GGQQSFDLLVIGGGSGGLACAKEAAQLGKKVAVADYVEPSPRGTKWGLGGTCVNVGCIPKKLMHQAALLGGMIRDAHHYGWEVAQPVQHNWKTMAEAVQNHVKSLNWGHRVQLQDRKVKYFNIKASFVDEHTVRGVDKGGKATLLSAEHIVIATGGRPRYPTQVKGALEYGITSDDIFWLKESPGKTLVVGASYVALECAGFLTGIGLDTTVMMRSIPLRGFDQQMSSLVTEHMESHGTQFLKGCVPSHIKKLPTNQLQVTWEDHASGKEDTGTFDTVLWAIGRVPETRTLNLEKAGISTNPKNQKIIVDAQEATSVPHIYAIGDVAEGRPELTPTAIKAGKLLAQRLFGKSSTLMDYSNVPTTVFTPLEYGCVGLSEEEAVALHGQEHVEVYHAYYKPLEFTVADRDASQCYIKMVCMREPPQLVLGLHFLGPNAGEVTQGFALGIKCGASYAQVMQTVGIHPTCSEEVVKLHISKRSGLEPTVTG
For B2, in data set [3], the Km is 1033 ± 114 µM, the kcat was 1.27 ± 0.0667 s⁻¹ and the kcat/Km worked out at 1220 M⁻¹ s⁻¹. For the same protein, in data set [4], the Km turned out to be 12 ± 2.7 µM, the catalytic constant (kcat) worked out at 48.3 ± 8.33 s⁻¹ and the kcat/Km amounted to 4e+06 M⁻¹ s⁻¹.
